According to publication doi:10.1101/507483:
Like-named read-outs stand apart in the source and are kept apart here.

Columns and labels:
[1] = target: TagA^ΔC, N-terminal domain of TagA from Thermoanaerobacter italicus (residues Met1-Gly195) (Thermoanaerobacter italicus); assay: AUC
[2] = target: TagA^ΔC, N-terminal domain of TagA from Thermoanaerobacter italicus (residues Met1-Gly195) (Thermoanaerobacter italicus); assay: AUC; remark: listed apart in the source

TagA^ΔC, N-terminal domain of TagA from Thermoanaerobacter italicus (residues Met1-Gly195) (domain or fragment)
Kd [1]: 7.4 µM | stoichiometry N [1]: 2 | Kd [2]: 3.5 µM | stoichiometry N [2]: 2
